Residue numbers refer to the chain shown, from its start.
What was measured:
human hepcidin-22 [1] = molecular target: T1, human hepcidin-22 (human); assay: MSD sandwich immunoassay: Mab OH4 capture, ruthenium-labelled Mab 3.23 detection; no sandwich signal (assigned to the capture antibody OH4)
T1 construct: Endogenous serum form (MW 2436 Da) in the MALDI-TOF experiments
T1 peptide: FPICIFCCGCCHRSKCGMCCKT
Experimental: (§1) Streptavidin-coated and blocked wells of an ELISA plate were incubated for 1 hour with biotinylated Mab OH4 at a concentration of 2 mg/L. Afterward, wells were aspirated and washed three times with TBST (Tris buffered saline containing 10 mmol/L Tris pH 7.40, 150 mmol/L NaCl with 1 mL Tween 20/L). Next, 100 μL of hepcidin standards (varying concentrations of synthesized hepcidin-25 protein in assay buffer consisting of 50 mmol/L HEPES, pH 7.40, 150 mmol/L NaCl, 10 mL/L Triton X-100, 5 mmol/L EDTA, and 5 mmol/L EGTA) were added to the wells to generate a calibration curve. At the same time, serum samples were diluted 1:20 in assay buffer and added to their respective wells, and the ELISA plate was allowed to incubate for 1 hour at room temperature. […] Following aspiration, wells were washed three times with TBST, and the ELISA plate was developed using a MSD reader, which passed a voltage across the wells and recorded ruthenium electrochemiluminescence from each well. MSD software and SigmaPlot version 8.0 were used for fitting of the calibration curves for the ELISA.
(§2) Synthesized hepcidin-25 protein was prepared at a concentration of 10 μg/L and serially diluted to create a standard curve.

human hepcidin-20 [2] = molecular target: T2, human hepcidin-20 (human); assay: as above
T2 construct: Endogenous serum form (MW 2192 Da) in the MALDI-TOF experiments
T2 peptide: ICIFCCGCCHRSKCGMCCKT
Experimental: as §1, §2

human hepcidin-25 [3] = molecular target: T3, human hepcidin-25 (human); assay: SPR, 25 C, Mab captured, hepcidin-25 injected
T3 construct: also called mature human hepcidin; human hepcidin-25 control peptide
T3 peptide: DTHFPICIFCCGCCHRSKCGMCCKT
Experimental: A SPR biosensor such as the BlAcore® T100 may be used to measure binding kinetics and affinity of antibodies such as the antibodies disclosed herein. The BIAcore® system utilizes the optical properties of SPR to detect alteration in protein concentration of interacting molecules within a dextran biosensor matrix. Except as noted, all reagents and materials are purchased from BIAcore® AB (Upsala, Sweden). All measurements are performed at 25° C. Samples are dissolved in HBS-EP buffer (150 mM sodium chloride, 3 mM EDTA, 0.05% (w/v) surfactant P-20, and 10 mM HEPES, pH 7.4). To capture Fabs with human kappa, goat-anti-human kappa is immobilized on flow cells 1 to 4 of a CMS sensor chip at a level of 5000-10000 response units (Rus) using an amine coupling kit. To capture Mabs with mouse IgG1, goat-anti-mouse Fc gamma is immobilized on flow cells 1 to 4 of a CMS sensor chip at a level of 5000-10000 Rus using an amine coupling kit. […] Fabs prepared from E. coli periplasma and Mabs prepared from mammalian cell culture are evaluated using multiple analytical cycles. […] The measurements are obtained at 25° C. and the association and dissociation rates for each cycle are evaluated using a “1:1 with mass transfer” binding model in the BIAevaluation software.

human hepcidin-25 [4] = molecular target: T3, human hepcidin-25; assay: SPR, 25 C
human hepcidin-25 [5] = molecular target: T3, human hepcidin-25; assay: immunoprecipitation from human serum on plate-coated antibody, acid elution, MALDI-TOF mass spectrometry (linear mode)
Text: FIG. 3 depicts a MALDI-TOF mass spectrum of the forms of human hepcidin immunoprecipitated from human sera with the anti-hepcidin-25 selective Mab 5E8. Signal 1 has a mass which is consistent with the expected mass of intact human hepcidin-25 (2790 Da). […] The mass spectrum was generated on a MALDI-TOF mass spectrometer utilizing a positive ion, linear mode method with a-cyano-4-hydroxycinnamic acid (peptide matrix) as sample matrix essentially as described in Example 6 below.
Anti-human hepcidin Mabs or Fabs are coated onto separate wells of a 96-well standard ELISA plate in carbonate-bicarbonate (pH 9.4) buffer for 1 hour at room temperature at a concentration of 2 mg/L. The wells are then aspirated and washed 3 times with TBST. Human serum samples containing a known amount of hepcidin-25 (diluted in assay buffer) is added at 100 μl/well for one hour at room temperature. The wells are aspirated and washed 3 times with TBST. […] The sample is dried and analyzed with a 4700 TOF-TOF Mass Spectrometer (Applied Biosystems) operated in the linear mode.
(§3) Similar experiments were performed using MALDI-TOF spectrometry to determine which hepcidin species in human serum are bound by Mab 5E8. These experiments determined that Mab 5E8 bound only hepcidin-25 in human serum (FIGS. 3 and 4). […]

human hepcidin-20 [6] = molecular target: T2, human hepcidin-20; assay: immunoprecipitation from human serum, MALDI-TOF mass spectrometry
Experimental: Anti-human hepcidin Mabs or Fabs are coated onto separate wells of a 96-well standard ELISA plate in carbonate-bicarbonate (pH 9.4) buffer for 1 hour at room temperature at a concentration of 2 mg/L. The wells are then aspirated and washed 3 times with TBST. Human serum samples containing a known amount of hepcidin-25 (diluted in assay buffer) is added at 100 μl/well for one hour at room temperature. The wells are aspirated and washed 3 times with TBST. Captured hepcidin polypeptides are eluted by adding 40 μL/well of 0.1% formic acid for 5 minutes at room temperature. The eluted samples are collected and concentrated with a C4 ZipTip™ (Millipore, Billerica, Mass.), a 10 μL pipette tip with a bed of chromatography media for purifying and concentrating femtomoles to picomoles of protein or peptides, ideally ranging from 25,000 MW to 100,000 MW. […] The sample is dried and analyzed with a 4700 TOF-TOF Mass Spectrometer (Applied Biosystems) operated in the linear mode.
as §3

rat hepcidin-25 [7] = molecular target: T4, rat hepcidin-25 (rat); assay: SPR, 25 C, Mab captured
T4 peptide: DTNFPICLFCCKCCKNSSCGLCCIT

mouse hepcidin-25 [8] = molecular target: T5, mouse hepcidin-25 (mouse); assay: SPR, 25 C, Mab captured
T5 peptide: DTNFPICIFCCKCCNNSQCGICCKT

human hepcidin-25 [9] = molecular target: T3, human hepcidin-25; assay: immunoprecipitation from human serum on plate-coated antibody, acid elution, MALDI-TOF mass spectrometry (linear mode)
Text: (§4) Signal 1 has a mass which is consistent with the expected mass of intact human hepcidin-25 (approximate molecular weight (MW) of 2790 Daltons (Da)). Signal 2 has a mass which is consistent with the expected mass of intact human hepcidin-20 (MW of 2192 Da). […] The mass spectrum was generated on a MALDI-TOF mass spectrometer utilizing a positive ion, linear mode method with a-cyano-4-hydroxycinnamic acid (peptide matrix) as sample matrix essentially as described in Example 6 below.
(§5) Anti-human hepcidin Mabs or Fabs are coated onto separate wells of a 96-well standard ELISA plate in carbonate-bicarbonate (pH 9.4) buffer for 1 hour at room temperature at a concentration of 2 mg/L. The wells are then aspirated and washed 3 times with TBST. Human serum samples containing a known amount of hepcidin-25 (diluted in assay buffer) is added at 100 μl/well for one hour at room temperature. The wells are aspirated and washed 3 times with TBST. Captured hepcidin polypeptides are eluted by adding 40 μL/well of 0.1% formic acid for 5 minutes at room temperature. […] The sample is dried and analyzed with a 4700 TOF-TOF Mass Spectrometer (Applied Biosystems) operated in the linear mode.

human hepcidin-20 [10] = molecular target: T2, human hepcidin-20; assay: as above
Text: as §4, §5

human hepcidin-25 [11] = molecular target: T3, human hepcidin-25; assay: SPR, Mab immobilized on CM4 chip
Experimental: The flow cells were then injected with human hepcidin-25. Next, the flow cells were injected with Mab 5E8.

human hepcidin-25 [12] = molecular target: T3, human hepcidin-25; assay: SPR
human hepcidin-25 [13] = molecular target: T3, human hepcidin-25; assay: SPR, Mab captured by anti-mouse IgG1 Fc
Experimental: Briefly, on a Biacore® T100, goat anti-mouse IgG1 Fc polyclonal antibody was immobilized onto flow cell 1 to 4 of CMS chip at 5000-15000 response units (Ru). Mab 5E8 was captured on flow cell 2, Mab 4C11 was captured on flow cell 3, and Mab 3A9 was captured on flow cell 4. Flow cell 1 was used as a reference flow cell. All flow cells were then injected with human hepcidin-25.

rat hepcidin-25 [14] = molecular target: T4, rat hepcidin-25; assay: SPR, 25 C
mouse hepcidin-25 [15] = molecular target: T5, mouse hepcidin-25; assay: SPR, 25 C
human hepcidin-22 [16] = molecular target: T1, human hepcidin-22; assay: SPR, 25 C
human hepcidin-20 [17] = molecular target: T2, human hepcidin-20; assay: SPR, 25 C, Mab captured

B1: mouse monoclonal antibody OH4 (antibody, mouse IgG1, kappa, V domains shown)
VH: EVKLVESGGGLVKPGGSLKISCAASGFAFSSYDMSWVRQTPEKRLEWVATIISGGTYTYYPDSVKGRFTISRDNARNTLNLQMSSLRAEDTALYYCADDGYIHWGQGTLVTVSA
VL: DIVMTQIPLTLSVTIGQPASISCKSSQSLLYPNGKTYLTWLLQRPGQSPKRLIYLVSKLDPGVPDRFTGSGSGADFTLKISRVEAEDLGIYYCIQGSHFPWTFGGGTKLELKR
notes: also called Mab OH4
Human hepcidin-22 [1]
  binding result: no binding (tested: 10 ug/L)
Human hepcidin-20 [2]
  binding result: no binding (tested: 10 ug/L)
Human hepcidin-25 [3]
  Kd: ~1.2 nM

B2: mouse monoclonal antibody OB3 (antibody, mouse IgG1, kappa, V domains shown)
VH: B1 VH
VL: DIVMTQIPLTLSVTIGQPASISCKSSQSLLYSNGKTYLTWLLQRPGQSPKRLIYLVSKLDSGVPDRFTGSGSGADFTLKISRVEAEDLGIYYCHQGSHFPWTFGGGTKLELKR
Human hepcidin-25 [4]
  binding result: binds

B3: mouse monoclonal antibody OB1 (antibody, mouse IgG1, kappa, V domains shown)
VH: B1 VH
VL: B1 VL with P32R, I94H
Human hepcidin-25 [4]
  binding result: binds

B4: mouse monoclonal antibody OE1 (antibody, mouse IgG1, kappa, V domains shown)
VH: B1 VH
VL: B1 VL with I94F, T102V
notes: also called 0E1
Human hepcidin-25 [4]
  binding result: binds

B5: mouse monoclonal antibody 5E8 (antibody, mouse IgG1, kappa, V domains shown)
VH: B1 VH
VL: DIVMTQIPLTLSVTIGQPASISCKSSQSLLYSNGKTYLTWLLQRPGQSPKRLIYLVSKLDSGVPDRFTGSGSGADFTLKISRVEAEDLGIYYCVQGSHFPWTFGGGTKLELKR
notes: also called Mab 5E8
Human hepcidin-25 [5]
  binding result: binds
Human hepcidin-20 [6]
  binding result: no binding
Rat hepcidin-25 [7]
  binding result: no binding
Mouse hepcidin-25 [8]
  binding result: no binding

B6: Anti-hepcidin Mab 3.23 (antibody, human IgG4 S228P, kappa, V domains shown)
VH: QVQLVQSGAEVKKPGSSVKVSCKASGYTFLIYPISWVRQAPGQGLEWMGNFHPYLGVTNYVEKFKGRVTITADKSTSTAYMELSSLRSEDTAVYYCARGGTGSFDYWGQGTTVTVSS
VL: DIQMTQSPSSLSASVGDRVTITCSASSRVSSTYLFWYQQKPGKAPKLLIYRTSPLASGVPSRFSGSGSGTDFTLTISSLQPEDFATYYCQQWSGYPFVFGGGTKVEIKR
Human hepcidin-25 [9]
  binding result: binds
Human hepcidin-20 [10]
  binding result: binds

B7: Anti-hepcidin Mab 3.12 (antibody, human IgG4 S228P, kappa, V domains shown)
VH: B6 VH with V61L
VL: B6 VL with P54T, A56T
Human hepcidin-25 [11]
  binding result: binds

B8: mouse monoclonal antibody 3A9 (antibody, mouse IgG1, kappa, V domains shown)
VH: EVKLVESGPGILQPSQTLSLTCSFSGFSLNSYGFGIGWIRQPSGKGLEWLTHIWWNGNKYYNTTLKSRLTISKDTSNNQVFLKIASLDTADTATYYCALIHYYGNSYGFAYWGQGTLVTVSA
VL: DIQMNQSPALMSASPGEKVTMTCSASSSVSSMYWYQQKPRSSPKPWIYLTSNLASGVPPRFSGSGSGTSYSLTISNMEAEDAATYYCQQWSSYPPTFGGGTKLEIKR
notes: also called Mab 3A9
Human hepcidin-25 [12]
  binding result: binds

B9: mouse monoclonal antibody 4C11 (antibody, mouse IgG1, kappa, V domains shown)
VH: QVQLKQSGPGILQPSQTLSLTCSFSGFSLSTYGIGVGWIRQPAGKGLEWLAHIWWNDNKSYNTALKSRLTISKDTSNNQVFLKIASVDTTHTATYYCVVIGYYGSTSGFAYWGQGTLVTVSA
VL: B8 VL with D1Q, Q3L, M4L, N5T, S31Y, P59A, N76S, Y93N
notes: also called Mab 4C11
Human hepcidin-25 [13]
  binding result: binds
Rat hepcidin-25 [14]
  binding result: binds
Mouse hepcidin-25 [15]
  binding result: binds
Human hepcidin-22 [16]
  Kd: ~209 nM
Human hepcidin-20 [17]
  binding result: no binding
